Here are results for three molecules from US12584139B2, “Nucleic acid construct set, kit, detection method and method for predicting drug effect” (KABUSHIKI KAISHA TOSHIBA, priority 2020, dated 2026).

In the data set the test system is human mammary tumor-derived cell line (MCF-7). The experiment in a line: NanoLuc luminescence assay after transfection of lipid particles encapsulating vectors 1 and vector 2. The format is cell-based. Particulars: for luminescence amount ratio (luminescence intensity with vector 2 alone assumed to be 1): vector 1 (50 ng/well) together with vector 2 (1 ng/well), MCF-7, 48 hours; for NanoLuc luminescence intensity (RLU): vector 1 (50 ng/well) transfected together with vector 2 (1 ng/well), lipid particles, MCF-7, 48 hours after addition. As for the experimental part:
A human mammary tumor-derived cell line (MCF-7) was subjected to adhesion culture at 37° C. in a 5% CO2 atmosphere in a culture flask using a medium (MEM, GIBCO) to which 10% fetal bovine serum (FBS) was added. After the culture, the medium was removed, and the cells were washed with PBS, and then the cells were detached by 0.25% trypsin-EDTA treatment. Then, the cells were suspended in a medium to which 10% FBS was added to inactivate trypsin. After recovering the cells by centrifugation, the cells were suspended in a medium to which 10% FBS was added to be 2.0×10^5 cells/mL. To a 96 well culture dish (manufactured by Thermo Fisher Scientific), 200 μL of the cell suspension was added to be 4.0×10^4 cells/well.
Next, the lipid particles encapsulating the three types of vectors 1 prepared in Example 3 were added to the wells to be a DNA concentration of 50 ng/well. At the same time, the lipid particles encapsulating the vector 2 prepared in Example 3 were further added to the wells to be a DNA concentration of 1 ng/well. As a control, a well to which only the vector 2 was added was also provided. Therefore, a sample to which only the vector 2 was added, a sample to which the vector 1-10 and the vector 2 were added, a sample to which the vector 1-20 and the vector 2 were added, and a sample to which the vector 1-30 and the vector 2 were added were obtained. After the addition, the cells were cultured at 37° C. in a 5% CO2 atmosphere.
48 hours after the addition of the lipid particles, the culture plate was taken out of the incubator, and the medium was removed. Then, the cells were washed with PBS, Glo Lysis Buffer (Promega) was added thereto at 100 μL/well, and the resulting mixtures were frozen at −80° C. for 30 minutes. The mixtures were melted at room temperature and then collected in 1.5 ml centrifuge tubes. The cell lysates were centrifuged at 15,000 rpm for 10 minutes to precipitate cell residues, and 25 μL of supernatant was dispensed into a 96 well plate (Black, Nunc). To the dispensed supernatant, 25 μL of a luciferase substrate solution contained in a luciferase assay system (Nano-Glo (registered trademark) Luciferase Assay System, Promega Corporation) was added and mixed. The luminescence amount of the resulting mixture per 1 well per 0.1 seconds was measured by using a luminometer (Mithras LB 940, Berthold).

B1: vector 1-10: CMV-promoter vector with Cre gene cleaved by ApaI/NheI, 10-base homologous sequences at the cleavage site (from SEQ ID NO: 9) (nucleic acid)
DNA: AGTGAACCGTCAGATCCTCGAGATCTGCGATCTAAGTAATGTCCAATTTACTGACCGTACACCAAAATTTGCCTGCATTACCGGTCGATGCAACGAGTGATGAGGTTCGCAAGAACCTGATGGACATGTTCAGGGATCGCCAGGCGTTTTCTGAGCATACCTGGAAAATGCTTCTGTCCGTTTGCCGGTCGTGGGCGGCATGGTGCAAGTTGAATAACCGGAAATGGTTTCCCGCAGAACCTGAAGATGTTCGCGATTATCTTCTATATCTTCAGGCGCGCGGTCTGGCAGTAAAAACTATCCAGCAACATTTGGGCCAGCTAAACATGCTTCATCGTCGGTCCGGGCTGCCACGACCAAGTGACAGCAATGCTGTTTCACTGGTTATGCGGCGGGGCCCGTTAACGCTAGCTTATGCGGCGGATCCGAAAAGAAAACGTTGATGCCGGTGAACGTGCAAAACAGGCTCTAGCGTTCGAACGCACTGATTTCGACCAGGTTCGTTCACTCATGGAAAATAGCGATCGCTGCCAGGATATACGTAATCTGGCATTTCTGGGGATTGCTTATAACACCCTGTTACGTATAGCCGAAATTGCCAGGATCAGGGTTAAAGATATCTCACGTACTGACGGTGGGAGAATGTTAATCCATATTGGCAGAACGAAAACGCTGGTTAGCACCGCAGGTGTAGAGAAGGCACTTAGCCTGGGGGTAACTAAACTGGTCGAGCGATGGATTTCCGTCTCTGGTGTAGCTGATGATCCGAATAACTACCTGTTTTGCCGGGTCAGAAAAAATGGTGTTGCCGCGCCATCTGCCACCAGCCAGCTATCAACTCGCGCCCTGGAAGGGATTTTTGAAGCAACTCATCGATTGATTTACGGCGCTAAGGATGACTCTGGTCAGAGATACCTGGCCTGGTCTGGACACAGTGCCCGTGTCGGAGCCGCGCGAGATATGGCCCGCGCTGGAGTTTCAATACCGGAGATCATGCAAGCTGGTGGCTGGACCAATGTAAATATTGTCATGAACTATATCCGTAACCTGGATAGTGAAACAGGGGCAATGGTGCGCCTGCTGGAAGATGGCGATTAGGGCCGCGACTCTAGAACTAGTGGATCCCCC
modifications: misc_feature 1..1128 vector 1-10
B1: the “luminescence amount ratio (luminescence intensity with vector 2 alone assumed to be 1)” value (from here on “luminescence amount ratio”) turned out to be 0.45 and the “NanoLuc luminescence intensity (RLU)” value is “about 2.9×10^5 RLU”.

B2: vector 1-30: CMV-promoter vector with Cre gene cleaved by ApaI/NheI, 30-base homologous sequences at the cleavage site (from SEQ ID NO: 11) (nucleic acid)
DNA: AGTGAACCGTCAGATCCTCGAGATCTGCGATCTAAGTAATGTCCAATTTACTGACCGTACACCAAAATTTGCCTGCATTACCGGTCGATGCAACGAGTGATGAGGTTCGCAAGAACCTGATGGACATGTTCAGGGATCGCCAGGCGTTTTCTGAGCATACCTGGAAAATGCTTCTGTCCGTTTGCCGGTCGTGGGCGGCATGGTGCAAGTTGAATAACCGGAAATGGTTTCCCGCAGAACCTGAAGATGTTCGCGATTATCTTCTATATCTTCAGGCGCGCGGTCTGGCAGTAAAAACTATCCAGCAACATTTGGGCCAGCTAAACATGCTTCATCGTCGGTCCGGGCTGCCACGACCAAGTGACAGCAATGCTGTTTCACTGGTTATGCGGCGGATCCGAAAAGAAAACGTTGGGGCCCGTTAACGCTAGCTTATGCGGCGGATCCGAAAAGAAAACGTTGATGCCGGTGAACGTGCAAAACAGGCTCTAGCGTTCGAACGCACTGATTTCGACCAGGTTCGTTCACTCATGGAAAATAGCGATCGCTGCCAGGATATACGTAATCTGGCATTTCTGGGGATTGCTTATAACACCCTGTTACGTATAGCCGAAATTGCCAGGATCAGGGTTAAAGATATCTCACGTACTGACGGTGGGAGAATGTTAATCCATATTGGCAGAACGAAAACGCTGGTTAGCACCGCAGGTGTAGAGAAGGCACTTAGCCTGGGGGTAACTAAACTGGTCGAGCGATGGATTTCCGTCTCTGGTGTAGCTGATGATCCGAATAACTACCTGTTTTGCCGGGTCAGAAAAAATGGTGTTGCCGCGCCATCTGCCACCAGCCAGCTATCAACTCGCGCCCTGGAAGGGATTTTTGAAGCAACTCATCGATTGATTTACGGCGCTAAGGATGACTCTGGTCAGAGATACCTGGCCTGGTCTGGACACAGTGCCCGTGTCGGAGCCGCGCGAGATATGGCCCGCGCTGGAGTTTCAATACCGGAGATCATGCAAGCTGGTGGCTGGACCAATGTAAATATTGTCATGAACTATATCCGTAACCTGGATAGTGAAACAGGGGCAATGGTGCGCCTGCTGGAAGATGGCGATTAGGGCCGCGACTCTAGAACTAGTGGATCCCCC
modifications: misc_feature 1..1148 vector 1-30
With B2, the “luminescence amount ratio” value was determined as 0.37 and the “NanoLuc luminescence intensity (RLU)” value was ~2.4×10^5 RLU.

B3: vector 1-20: CMV-promoter vector with Cre gene cleaved by ApaI/NheI, 20-base homologous sequences at the cleavage site (from SEQ ID NO: 10) (nucleic acid)
DNA: AGTGAACCGTCAGATCCTCGAGATCTGCGATCTAAGTAATGTCCAATTTACTGACCGTACACCAAAATTTGCCTGCATTACCGGTCGATGCAACGAGTGATGAGGTTCGCAAGAACCTGATGGACATGTTCAGGGATCGCCAGGCGTTTTCTGAGCATACCTGGAAAATGCTTCTGTCCGTTTGCCGGTCGTGGGCGGCATGGTGCAAGTTGAATAACCGGAAATGGTTTCCCGCAGAACCTGAAGATGTTCGCGATTATCTTCTATATCTTCAGGCGCGCGGTCTGGCAGTAAAAACTATCCAGCAACATTTGGGCCAGCTAAACATGCTTCATCGTCGGTCCGGGCTGCCACGACCAAGTGACAGCAATGCTGTTTCACTGGTTATGCGGCGGATCCGAAAAGGGCCCGTTAACGCTAGCTTATGCGGCGGATCCGAAAAGAAAACGTTGATGCCGGTGAACGTGCAAAACAGGCTCTAGCGTTCGAACGCACTGATTTCGACCAGGTTCGTTCACTCATGGAAAATAGCGATCGCTGCCAGGATATACGTAATCTGGCATTTCTGGGGATTGCTTATAACACCCTGTTACGTATAGCCGAAATTGCCAGGATCAGGGTTAAAGATATCTCACGTACTGACGGTGGGAGAATGTTAATCCATATTGGCAGAACGAAAACGCTGGTTAGCACCGCAGGTGTAGAGAAGGCACTTAGCCTGGGGGTAACTAAACTGGTCGAGCGATGGATTTCCGTCTCTGGTGTAGCTGATGATCCGAATAACTACCTGTTTTGCCGGGTCAGAAAAAATGGTGTTGCCGCGCCATCTGCCACCAGCCAGCTATCAACTCGCGCCCTGGAAGGGATTTTTGAAGCAACTCATCGATTGATTTACGGCGCTAAGGATGACTCTGGTCAGAGATACCTGGCCTGGTCTGGACACAGTGCCCGTGTCGGAGCCGCGCGAGATATGGCCCGCGCTGGAGTTTCAATACCGGAGATCATGCAAGCTGGTGGCTGGACCAATGTAAATATTGTCATGAACTATATCCGTAACCTGGATAGTGAAACAGGGGCAATGGTGCGCCTGCTGGAAGATGGCGATTAGGGCCGCGACTCTAGAACTAGTGGATCCCCC
modifications: misc_feature 1..1138 vector 1-20
On to B3, for which the “luminescence amount ratio” value came to 0.31 and the “NanoLuc luminescence intensity (RLU)” value is given as ~2.0×10^5 RLU.
